According to patent publication US20120076782A1 (MorphoSys, published 2012):
Like-named read-outs stand apart in the source and are kept apart here. Blank lines part the entries; values can stand above or below the molecule they belong to.

Assays:
[1] = molecular target: T1, human CD38 on cells or tissue (human, UniProt P28907 1-300); test: cell-based or functional assay
[2] = molecular target: T1, human CD38 on cells or tissue; test: FACS Scatchard, IgG1 on RPMI8226 MM cells; mean of at least 2 determinations
[3] = molecular target: T1, human CD38 on cells or tissue
[4] = molecular target: CD20 on cell lines (UniProt P11836); test: cell-based or functional assay
Sequence of CD20 on cell lines (P11836 whole entry): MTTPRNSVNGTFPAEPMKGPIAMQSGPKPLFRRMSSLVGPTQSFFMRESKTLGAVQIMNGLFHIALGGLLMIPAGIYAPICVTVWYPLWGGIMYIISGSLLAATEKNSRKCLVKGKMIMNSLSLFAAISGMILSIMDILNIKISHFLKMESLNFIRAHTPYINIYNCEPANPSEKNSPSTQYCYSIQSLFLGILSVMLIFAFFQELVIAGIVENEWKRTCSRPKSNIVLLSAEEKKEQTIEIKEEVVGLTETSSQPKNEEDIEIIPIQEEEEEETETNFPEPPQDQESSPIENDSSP

[5] = molecular target: T1, human CD38 on cells or tissue; test: cell-based or functional assay; remark: listed apart in the source
[6] = molecular target: T1, human CD38 on cells or tissue; test: cell-based or functional assay; remark: listed apart in the source
[7] = molecular target: T1, human CD38 on cells or tissue; test: cell-based or functional assay; remark: listed apart in the source
[8] = molecular target: T2, hCD38 Fc fusion protein (aa 45-273) (human, UniProt P28907 45-273); test: ELISA; antigen coated at 5 µg/ml, anti-human Fab alkaline phosphatase conjugate, fluorescence Ex/Em 430/535 nm
T2 construct: Making of this construct is not described; also called C-terminally deleted format; not shown: Fc part (not described for this construct)

[9] = molecular target: T3, bovine serum albumine (bovine, UniProt P02769 25-607); test: as above
T3 construct: Control antigen coated on ELISA wells; also called BSA
T3 sequence (P02769 25-607 limits assumed): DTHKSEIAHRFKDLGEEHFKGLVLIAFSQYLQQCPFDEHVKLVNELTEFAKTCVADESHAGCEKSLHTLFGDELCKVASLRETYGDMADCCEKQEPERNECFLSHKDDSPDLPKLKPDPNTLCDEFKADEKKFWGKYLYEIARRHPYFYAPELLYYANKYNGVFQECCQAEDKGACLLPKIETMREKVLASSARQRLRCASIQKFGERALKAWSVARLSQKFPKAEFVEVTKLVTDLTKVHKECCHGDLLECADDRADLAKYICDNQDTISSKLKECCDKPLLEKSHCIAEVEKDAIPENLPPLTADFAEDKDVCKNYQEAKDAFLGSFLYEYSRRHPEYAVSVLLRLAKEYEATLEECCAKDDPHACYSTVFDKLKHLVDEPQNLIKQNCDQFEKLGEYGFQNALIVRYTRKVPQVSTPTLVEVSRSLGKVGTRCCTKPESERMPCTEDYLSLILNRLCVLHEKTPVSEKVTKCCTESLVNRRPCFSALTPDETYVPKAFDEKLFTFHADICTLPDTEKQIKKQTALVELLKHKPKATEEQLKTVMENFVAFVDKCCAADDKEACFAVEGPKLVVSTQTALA

[10] = molecular target: T4, hCD38 Fc fusion protein (aa 45-300) (human, UniProt P28907 45-300); test: SPR (Biacore 3000), Fab over directly immobilized CD38-Fc fusion protein; mean of at least 2 determinations
T4 construct: produced in HEK293; also called full-length hCD38 Fc-fusion protein; soluble CD38-Fc

[11] = molecular target: T2, hCD38 Fc fusion protein (aa 45-273); test: ELISA; antigen coated at 5 µg/ml, anti-murine Fab alkaline phosphatase conjugate, fluorescence Ex/Em 430/535 nm
[12] = molecular target: T3, bovine serum albumine; test: as above
[13] = molecular target: T1, human CD38 on cells or tissue; test: cell-based or functional assay; remark: listed apart in the source
[14] = molecular target: T5, cynomolgus monkey CD38 on cells or tissue (cynomolgus monkey, UniProt Q5VAN0 1-301); test: FACS on lymphocytes; IHC on spleen, lymph-nodes
T5 construct: whole, on cells
T5 sequence (Q5VAN0 whole entry): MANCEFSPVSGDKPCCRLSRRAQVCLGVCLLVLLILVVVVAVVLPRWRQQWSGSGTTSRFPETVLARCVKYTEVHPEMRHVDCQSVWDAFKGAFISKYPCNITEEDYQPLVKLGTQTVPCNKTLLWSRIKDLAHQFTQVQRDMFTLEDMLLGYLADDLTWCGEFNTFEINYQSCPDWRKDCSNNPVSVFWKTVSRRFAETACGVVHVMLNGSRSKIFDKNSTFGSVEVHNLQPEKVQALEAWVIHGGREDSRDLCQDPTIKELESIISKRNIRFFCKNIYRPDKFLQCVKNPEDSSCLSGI

- ADCC EC50 [nM], LP-1 target cells [1]: 5.23 nM
- ADCC EC50 [nM], RPMI8226 target cells [1]: 4.1 nM
- CDC EC50 [nM], CHO-transfectants [1]: 9.3 nM
- Kd [2]: 8.28 nM
Molecule: chimeric OKT10 (antibody)
- max. specific killing in ADCC, NCI-H929 cells (MM), E:T 30:1, 5 µg/ml; column PC [3]: 54%

Molecule: Rituximab (antibody)
- Namalwa (max. spec. Killing), o/n incubation [4]: < 1%
- Raji (max. spec. killing), o/n incubation [4]: 9%

- ADCC EC50 [nM], LP-1 target cells [6]: 0.09 nM
- ADCC EC50 [nM], RPMI8226 target cells [6]: 0.04 nM
- CDC EC50 [nM], CHO-transfectants [6]: 0.41 nM
- Kd [2]: 0.6 nM
- CDC EC50, LP-1 cells [7]: 0.55 nM
- binding result [8]: no binding (tested: 10 µg/ml)
- binding result [9]: no binding (tested: 10 µg/ml)
B1: MOR03079 human IgG1 (antibody, V domains shown)
VH: QVQLVESGGGLVQPGGSLRLSCAASGFTFSNYGMHWVRQAPGKGLEWVSNIRSDGSWTYYADSVKGRFTISRDNSKNTLYLQMNSLRAEDTAVYYCARRYWSKSHASVTDYWGQGTLVTVSS
VL: DIQMTQSPSSLSASVGDRVTITCRASQDISAFLNWYQQKPGKAPKLLIYKVSNLQSGVPSRFSGSGSGTDFTLTISSLQPEDFATYYCQQAYSGSITFGQGTKVEIKR
notes: also called MAb#2
- MM-samples (max. spec. Killing), 4 hrs incubation [5]: 24%
- Namalwa (EC50), killing by cross-linking [5]: 0.08 nM
- Namalwa (max. spec. Killing), o/n incubation [5]: 18%
- Raji (EC50), killing by cross-linking [5]: 0.08 nM
- Raji (max. spec. killing), o/n incubation [5]: 21%

- Kd [10]: 2.4 nM
B2: MOR03079 Fab (Fab, V domains shown)
VH: QVQLVESGGGLVQPGGSLRLSCAASGFTFSNYGMHWVRQAPGKGLEWVSNIRSDGSWTYYADSVKGRFTISRDNSKNTLYLQMNSLRAEDTAVYYCARRYWSKSHASVTDYWGQGTLVTVSS
VL: DIQMTQSPSSLSASVGDRVTITCRASQDISAFLNWYQQKPGKAPKLLIYKVSNLQSGVPSRFSGSGSGTDFTLTISSLQPEDFATYYCQQAYSGSITFGQGTKVEIKR
notes: also called antibody no

- binding result [11]: no binding (tested: 10 µg/ml)
- binding result [12]: no binding (tested: 10 µg/ml)
B3: MOR03079 human-mouse chimeric IgG2a (antibody, V domains shown)
VH: QVQLVESGGGLVQPGGSLRLSCAASGFTFSNYGMHWVRQAPGKGLEWVSNIRSDGSWTYYADSVKGRFTISRDNSKNTLYLQMNSLRAEDTAVYYCARRYWSKSHASVTDYWGQGTLVTVSS
VL: DIQMTQSPSSLSASVGDRVTITCRASQDISAFLNWYQQKPGKAPKLLIYKVSNLQSGVPSRFSGSGSGTDFTLTISSLQPEDFATYYCQQAYSGSITFGQGTKVEIKR
notes: Chimeric IgG2a: human variable regions of MOR03079 fused to murine Fc gamma 2a constant regions; also called MAb#2 (chimeric: human variable domaine/murine Fc 2a); mu03079

- ADCC EC50 [nM], LP-1 target cells [6]: 1 nM
- ADCC EC50 [nM], RPMI8226 target cells [6]: 0.28 nM
- CDC EC50 [nM], CHO-transfectants (mean from 2 determinations) [6]: 10.9 nM
- CDC EC50 [nM], CHO-transfectants (mean from 4 determinations) [6]: 13.6 nM
- Kd [2]: 6.31 nM
- binding result [8]: no binding (tested: 10 µg/ml)
- binding result [9]: no binding (tested: 10 µg/ml)
B4: MOR03100 human IgG1 (antibody, V domains shown)
VH: QVQLVESGGGLVQPGGSLRLSCAASGFTFSSNGMSWVRQAPGKGLEWVSNISYLSSSTYYADSVKGRFTISRDNSKNTLYLQMNSLRAEDTAVYYCARFYGYFNYADVWGQGTLVTVSS
VL: DIELTQPPSVSVAPGQTARISCSGDNIGHYYASWYQQKPGQAPVLVIYRDNDRPSGIPERFSGSNSGNTATLTISGTQAEDEADYYCQSYDYLHDFVFGGGTKLTVLG
notes: also called LAC 3100; MAb#4

- Kd [10]: 10 nM
B5: MOR03100 Fab (Fab, V domains shown)
VH: QVQLVESGGGLVQPGGSLRLSCAASGFTFSSNGMSWVRQAPGKGLEWVSNISYLSSSTYYADSVKGRFTISRDNSKNTLYLQMNSLRAEDTAVYYCARFYGYFNYADVWGQGTLVTVSS
VL: DIELTQPPSVSVAPGQTARISCSGDNIGHYYASWYQQKPGQAPVLVIYRDNDRPSGIPERFSGSNSGNTATLTISGTQAEDEADYYCQSYDYLHDFVFGGGTKLTVLG
notes: also called LAC 3100; antibody no; 3100

- ADCC EC50 [nM], LP-1 target cells [6]: 0.6 nM
- ADCC EC50 [nM], RPMI8226 target cells [6]: 0.08 nM
- CDC EC50 [nM], CHO-transfectants (mean from 2 determinations) [6]: 0.8 nM
- CDC EC50 [nM], CHO-transfectants (mean from 3 determinations) [6]: 0.94 nM
- Kd [2]: 0.89 nM
- CDC EC50, LP-1 cells [7]: 5.6 nM
- CDC EC50 on hCD38-transfectants, fold better than reference antibody chOKT10 [7]: 3 fold
- binding result [8]: no binding (tested: 10 µg/ml)
- binding result [9]: no binding (tested: 10 µg/ml)
- ADCC EC50 values in [nM], MM Samples (purified primary MM-cells) [13]: 0.08 nM
B6: MOR03077 human IgG1 (antibody, V domains shown)
VH: QVQLVQSGAEVKKPGASVKVSCKASGYTFTSYSINWVRQAPGQGLEWMGYIDPNRGNTNYAQKFQGRVTMTRDTSISTAYMELSSLRSEDTAVYYCAREYIYFIHGMLDFWGQGTLVTVSS
VL: DIVMTQSPLSLPVTPGEPASISCRSSQSLLFIDGNNYLNWYLQKPGQSPQLLIYLGSNRASGVPDRFSGSGSGTDFTLKISRVEAEDVGVYYCQQYSSKSATFGQGTKVEIKR
notes: also called MAb#1
- MM-samples (max. spec. Killing), 4 hrs incubation [5]: 21%
- Namalwa (max. spec. Killing), o/n incubation [5]: 11%
- Raji (max. spec. killing), o/n incubation [5]: 21%

- Kd [10]: 56 nM
B7: MOR03077 Fab (Fab, V domains shown)
VH: QVQLVQSGAEVKKPGASVKVSCKASGYTFTSYSINWVRQAPGQGLEWMGYIDPNRGNTNYAQKFQGRVTMTRDTSISTAYMELSSLRSEDTAVYYCAREYIYFIHGMLDFWGQGTLVTVSS
VL: DIVMTQSPLSLPVTPGEPASISCRSSQSLLFIDGNNYLNWYLQKPGQSPQLLIYLGSNRASGVPDRFSGSGSGTDFTLKISRVEAEDVGVYYCQQYSSKSATFGQGTKVEIKR
notes: also called antibody no

- ADCC EC50 [nM], LP-1 target cells [6]: 0.17 nM
- ADCC EC50 [nM], RPMI8226 target cells [6]: 0.05 nM
- CDC EC50 [nM], CHO-transfectants (mean from 2 determinations) [6]: 3.2 nM
- CDC EC50 [nM], CHO-transfectants (mean from 3 determinations) [6]: 2.93 nM
- Kd [2]: 0.47 nM
- binding result [8]: no binding (tested: 10 µg/ml)
- binding result [9]: no binding (tested: 10 µg/ml)
B8: MOR03080 human IgG1 (antibody, V domains shown)
VH: QVQLVESGGGLVQPGGSLRLSCAASGFTFSSYGMHWVRQAPGKGLEWVSNIYSDGSNTFYADSVKGRFTISRDNSKNTLYLQMNSLRAEDTAVYYCARNMYRWPFHYFFDYWGQGTLVTVSS
VL: DIELTQPPSVSVAPGQTARISCSGDNIGNKYVSWYQQKPGQAPVVVIYGDNNRPSGIPERFSGSNSGNTATLTISGTQAEDEADYYCSSYDSSYFVFGGGTKLTVLG
notes: also called MAb#3
- MM-samples (max. spec. Killing), 4 hrs incubation [5]: 4%
- Namalwa (max. spec. Killing), o/n incubation [5]: < 1%
- Raji (max. spec. killing), o/n incubation [5]: 4%

- binding result [14]: binds
- binding result [11]: no binding (tested: 10 µg/ml)
- binding result [12]: no binding (tested: 10 µg/ml)
B9: MOR03080 human-mouse chimeric IgG2a (antibody, V domains shown)
VH: QVQLVESGGGLVQPGGSLRLSCAASGFTFSSYGMHWVRQAPGKGLEWVSNIYSDGSNTFYADSVKGRFTISRDNSKNTLYLQMNSLRAEDTAVYYCARNMYRWPFHYFFDYWGQGTLVTVSS
VL: DIELTQPPSVSVAPGQTARISCSGDNIGNKYVSWYQQKPGQAPVVVIYGDNNRPSGIPERFSGSNSGNTATLTISGTQAEDEADYYCSSYDSSYFVFGGGTKLTVLG
notes: Chimeric IgG2a: human variable regions of MOR03080 and murine constant regions; also called MAb#3 (chimeric: human variable domaine/murine Fc 2a); mu03080

- Kd [10]: 27.5 nM
B10: MOR03080 Fab (Fab, V domains shown)
VH: QVQLVESGGGLVQPGGSLRLSCAASGFTFSSYGMHWVRQAPGKGLEWVSNIYSDGSNTFYADSVKGRFTISRDNSKNTLYLQMNSLRAEDTAVYYCARNMYRWPFHYFFDYWGQGTLVTVSS
VL: DIELTQPPSVSVAPGQTARISCSGDNIGNKYVSWYQQKPGQAPVVVIYGDNNRPSGIPERFSGSNSGNTATLTISGTQAEDEADYYCSSYDSSYFVFGGGTKLTVLG
notes: also called antibody no
